The record followed here is patent US20100227400A1 (published 2010).

In data set [1] the target is T1, DsRed fused downstream of the Gal4 DNA binding domain (pGBT9) (Discosoma sp.).
T1 construct: range 1-147; also called DsRed-prey
The data set can be described thus: yeast two hybrid, negative control. As to the method: Yeast two hybrid assays were also performed. […] Alternatively, the yeast were grown on filters placed on plates lacking tryptophan and leucine to select for the bait and prey plasmids. After overnight growth, the filters were removed from the plates, frozen in liquid nitrogen, thawed, and incubated in X-gal overnight at 30° C. and two days at 4° C. to test for β-galactosidase activity (assayed by blue color development).

Data set [2] concerns the molecule itself. The data set can be described thus: SDS-PAGE without boiling, self-association.
Data set [3] concerns the molecule itself. The data set can be described thus: SDS-PAGE with and without boiling, intermolecular self-association.
Data set [4] deals with the molecule itself. The data set can be described thus: analytical equilibrium ultracentrifugation, self-association.
Experimental: The data were analyzed globally at 10K, 14K, and 20K rpm by nonlinear least-squares analysis using the ORIGIN software package supplied by Beckman. The goodness of fit was evaluated on the basis of the magnitude and randomness of the residuals, expressed as the difference between the experimental data and the theoretical curve and also by checking each of the fit parameters for physical reasonability.
Data set [5] concerns the molecule itself. The data set can be described thus: oligomeric state of the mutant, self-association.
Data set [6] concerns the molecule itself. The data set can be described thus: non-denaturing polyacrylamide gel electrophoresis, self-association. As to the method:
The mutant proteins were prepared following standard methodology and analyzed with polyacrylamide gel electrophoresis as described (Baird et al., supra, 2000). […] This solution was centrifuged in a Beckman XL-1 analytical ultracentrifuge in PBS at 10,000 rpm, 12,000 rpm, 14,000 rpm, and 20,000 rpm.
No attempt was made to disrupt the A:B and C:D interfaces.

Data set [7] concerns the molecule itself. The data set can be described thus: fluorescence excitation spectra, FRET within the oligomer.
Experimental: Absorption/Fluorescence Spectra and Extinction Coefficients—Fluorescence spectra were taken with a Fluorolog spectrofluorimeter (Spex Industries, Edison, N.J.). Absorbance spectra of proteins were taken with a Cary ITV-V is spectrophotometer. […] Corrections were included in the quantum yield calculation for the refractive index difference between ethanol and water. For extinction coefficient determination, native protein absorbance was measured with the spectrophotometer, and protein concentration was measured by the BCA method (Pierce).
Data set [8] concerns the molecule itself. The data set can be described thus: analytical equilibrium centrifugation; model in which the tetramer dimerizes into an octamer.
Experimental: The data were analyzed globally at 10,000, 14,000, and 20,000 rpm by nonlinear least-squares analysis using the Origin software package (Beckman). The goodness of fit was evaluated on the basis of the magnitude and randomness of the residuals, expressed as the difference between the experimental data and the theoretical curve and also by checking each of the fit parameters for physical reasonability.

Residue numbers refer to the chain shown, from its start. In names and notes the source's numbering stands.

B1: Gal4 activation domain alone (pGAD GH without DsRed) (other, UniProt P04386 768-881, looked up)
chain: ANFNQSGNIADSSLSFTFTNSSNGPNLITTQTNSQALSQPIASSNVHDNFMNNEITASKIDDGNNSKPLSPGWTDQTAYNAFGITTGMFNTTTMDDVYNYLFDDEDTPPNPKKE
notes: range 768-881; Negative control of the two hybrid assay
Consider B1, for which the binding result in data set [1] is recorded as “no binding”.

B2: tandem DsRed (tDsRed) (other)
chain: MRGSHHHHHHGMASMTGGQQMGRDLYDDDDKDPMRSSKNVIKEFMRFKVRMEGTVNGHEFEIEGEGEGRPYEGHNTVKLKVTKGGPLPFAWDILSPQFQYGSKVYVKHPADIPDYKKLSFPEGFKWERVMNFEDGGVVTVTQDSSLQDGCFIYKVKFIGVNFPSDGPVMQKKTMGWEASTERLYPRDGVLKGEIHKALKLKDGGHYLVEFKSIYMAKKPVQLPGYYYVDSKLDITSHNEDYTIVEQYERTEGRHHLFLGSTSGSGKPGSGEGSTKGMRSSKNVIKEFMRFKVRMEGTVNGHEFEIEGEGEGRPYEGHNTVKLKVTKGGPLPFAWDILSPQFQYGSKVYVKHPADIPDYKKLSFPEGFKWERVMNFEDGGVVTVTQDSSLQDGCFIYKVKFIGVNFPSDGPVMQKKTMGWEASTERLYPRDGVLKGEIHKALKLKDGGHYLVEFKSIYMAKKPVQLPGYYYVDSKLDITSHNEDYTIVEQYERTEGRHHLFL
Regarding B2, the binding result in data set [2] is “binds”.

B3: tandem DsRed-I125R (tDsRed-I125R) (other)
chain: B2 chain with I158R, I401R
On to B3, for which the binding result in data set [3] is “no binding”.

B4: dimer2 (Discosoma variant red fluorescent protein) (other)
chain: MRGSHHHHHHGMASMTGGQQMGRDLYDDDDKDPMVASSEDVIKEFMRFKVRMEGSVNGHEFEIEGEGEGRPYEGTQTAKLKVTKGGPLPFAWDILSPQFQYGSKAYVKHPADIPDYKKLSFPEGFKWERVMNFEDGGVVTVTQDSSLQDGTLIYKVKFRGTNFPPDGPVMQKKTMGWEASTERLYPRDGVLKGEIHQALKLKDGGHYLVEFKTIYMAKKPVQLPGYYYVDTKLDITSHNEDYTIVEQYERSEGRHHLFL
notes: Protomer; forms an AC dimer
On to B4, for which, in data set [4], the binding result is recorded as “binds”.

B5: DsRed-I125R (other)
chain: MRGSHHHHHHGMASMTGGQQMGRDLYDDDDKDPMRSSKNVIKEFMRFKVRMEGTVNGHEFEIEGEGEGRPYEGHNTVKLKVTKGGPLPFAWDILSPQFQYGSKVYVKHPADIPDYKKLSFPEGFKWERVMNFEDGGVVTVTQDSSLQDGCFIYKVKFRGVNFPSDGPVMQKKTMGWEASTERLYPRDGVLKGEIHKALKLKDGGHYLVEFKSIYMAKKPVQLPGYYYVDSKLDITSHNEDYTIVEQYERTEGRHHLFL
notes: Protomer
In the case of B5, in data set [5], the binding result is on record as “binds”.

B6: T1 DsRed-I125R (other)
chain: B5 chain with R35A, K38E, N39D, T54S, H74T, N75Q, V77A, C150S, T250A
notes: Protomer; forms a dimer; also called T1-I125R
For B6, in data set [5], the binding result is reported as “binds”.

B7: DsRed I125K (other)
chain: B5 chain with R158K
notes: Protomer; mixture of dimer and tetramer
Regarding B7, the binding result in data set [6] is “binds”.

B8: T1 (Discosoma sp. variant fast T1 red fluorescent protein) (other)
chain: B5 chain with R35A, K38E, N39D, T54S, H74T, N75Q, V77A, C150S, R158I, T250A
notes: Protomer of a tetramer; also called fast tetramer T1; DsRed-Express
For B8, the binding result in data set [7] is “binds”.

B9: DsRed obligate tetramer (polyHis-tagged) (other)
chain: B5 chain with R158I
notes: The tetramer as a unit, for the fitted tetramer-to-octamer dissociation constant; also called tetramer of polyHis-tagged DsRed
As a reminder, the Kd is the equilibrium constant for the complex coming apart. In the case of B9, the Kd in data set [8] stood at 39 µM. This counts as double-digit micromolar.
